Experimental data taken from patent US20220227830A1, “QD DOSING OF GIP RECEPTOR AGONIST PEPTIDE COMPOUNDS AND USES THEREOF” (Takeda Pharmaceutical Company Limited, priority 2020, published 2022).
Starred links: 1 amine or outer side, 2 acyl side, 3 side chain; linkers in the order of their positions; H or OH if unused. Non-standard residues stand in square brackets, D forms with d. Groups on a side chain read outwards from the residue. No end group written: not given here. *: point of attachment. C16 diacid = O=C(O)CCCCCCCCCCCCCCC(=O)*; C15 diacid = O=C(O)CCCCCCCCCCCCCC(=O)*; γGlu = O=C(O)[C@H](CCC(=O)[*:2])N[*:1]; NMeY = CN[C@@H](Cc1ccc(O)cc1)C(=O)O; AEEA = NCCOCCOCC(=O)O; Aib = CC(C)(N)C(=O)O

T1: full-length human GIPR with an N-terminal FLAG tag (human, UniProt P48546 22-466)
T1 sequence (looked up): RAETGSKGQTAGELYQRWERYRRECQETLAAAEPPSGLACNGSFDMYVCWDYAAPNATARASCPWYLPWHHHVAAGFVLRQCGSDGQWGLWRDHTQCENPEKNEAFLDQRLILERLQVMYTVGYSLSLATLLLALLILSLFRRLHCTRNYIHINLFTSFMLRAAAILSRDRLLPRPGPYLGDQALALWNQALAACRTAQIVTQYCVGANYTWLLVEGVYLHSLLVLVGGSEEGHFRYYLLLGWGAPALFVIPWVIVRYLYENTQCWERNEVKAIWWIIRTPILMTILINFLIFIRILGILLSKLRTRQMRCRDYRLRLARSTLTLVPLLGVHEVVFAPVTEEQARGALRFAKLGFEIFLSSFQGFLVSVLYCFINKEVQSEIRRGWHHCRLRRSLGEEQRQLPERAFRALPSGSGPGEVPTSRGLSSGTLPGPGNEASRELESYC


Key:
[1] = biological target: T1, full-length human GIPR with an …; assay: cell-based or functional assay
[2] = biological target: full-length human GLP-1R with an N-terminal FLAG tag (human, UniProt P43220 24-463); assay: cell-based or functional assay

Row | Binder | Human GIPR cAMP, HEK293T EC50 [1] [nM] | Human GLP1R cAMP HEK293T EC50 [2] [nM]
1 | [NMeY][Aib]EGTFISDYSIALDR[Aib]AQ[Aib]KFVNWLLAQS-NH2 (not fully specified (residue 21)) [Compound 85] | 0.0009 | 63.1
2 | [NMeY][Aib]EGTFISDYSIALDR[Aib]AQ[Aib]NFVNWLLAK([AEEA-AEEA-γGlu-γGlu-C15 diacid])RPSSGAPPPS-NH2 (N-terminus assumed; SMILES CC[C@H](C)[C@H](NC(=O)[C@H](CO)NC(=O)[C@H](Cc1ccc(O)cc1)NC(=O)[C@H](CC(=O)O)NC(=O)[C@H](CO)NC(=O)[C@@H](NC(=O)[C@H](Cc1ccccc1)NC(=O)[C@@H](NC(=O)CNC(=O)[C@H](CCC(=O)O)NC(=O)C(C)(C)NC(=O)[C@H](Cc1ccc(O)cc1)NC)[C@@H](C)O)[C@@H](C)CC)C(=O)N[C@@H](C)C(=O)N[C@@H](CC(C)C)C(=O)N[C@@H](CC(=O)O)C(=O)N[C@@H](CCCNC(=N)N)C(=O)NC(C)(C)C(=O)N[C@@H](C)C(=O)N[C@@H](CCC(N)=O)C(=O)NC(C)(C)C(=O)N[C@@H](CC(N)=O)C(=O)N[C@@H](Cc1ccccc1)C(=O)N[C@H](C(=O)N[C@@H](CC(N)=O)C(=O)N[C@@H](Cc1c[nH]c2ccccc12)C(=O)N[C@@H](CC(C)C)C(=O)N[C@@H](CC(C)C)C(=O)N[C@@H](C)C(=O)N[C@@H](CCCCNC(=O)COCCOCCNC(=O)COCCOCCNC(=O)CC[C@H](NC(=O)CC[C@H](NC(=O)CCCCCCCCCCCCCC(=O)O)C(=O)O)C(=O)O)C(=O)N[C@@H](CCCNC(=N)N)C(=O)N1CCC[C@H]1C(=O)N[C@@H](CO)C(=O)N[C@@H](CO)C(=O)NCC(=O)N[C@@H](C)C(=O)N1CCC[C@H]1C(=O)N1CCC[C@H]1C(=O)N1CCC[C@H]1C(=O)N[C@@H](CO)C(N)=O)C(C)C) [Compound 88] | 0.0006 | 166
3 | [NMeY][Aib]EGTFISDYSIALDR[Aib]AQ[Aib]NFVNWLLAQK([AEEA-AEEA-γGlu-γGlu-C15 diacid])-NH2 (N-terminus assumed; SMILES CC[C@H](C)[C@H](NC(=O)[C@H](CO)NC(=O)[C@H](Cc1ccc(O)cc1)NC(=O)[C@H](CC(=O)O)NC(=O)[C@H](CO)NC(=O)[C@@H](NC(=O)[C@H](Cc1ccccc1)NC(=O)[C@@H](NC(=O)CNC(=O)[C@H](CCC(=O)O)NC(=O)C(C)(C)NC(=O)[C@H](Cc1ccc(O)cc1)NC)[C@@H](C)O)[C@@H](C)CC)C(=O)N[C@@H](C)C(=O)N[C@@H](CC(C)C)C(=O)N[C@@H](CC(=O)O)C(=O)N[C@@H](CCCNC(=N)N)C(=O)NC(C)(C)C(=O)N[C@@H](C)C(=O)N[C@@H](CCC(N)=O)C(=O)NC(C)(C)C(=O)N[C@@H](CC(N)=O)C(=O)N[C@@H](Cc1ccccc1)C(=O)N[C@H](C(=O)N[C@@H](CC(N)=O)C(=O)N[C@@H](Cc1c[nH]c2ccccc12)C(=O)N[C@@H](CC(C)C)C(=O)N[C@@H](CC(C)C)C(=O)N[C@@H](C)C(=O)N[C@@H](CCC(N)=O)C(=O)N[C@@H](CCCCNC(=O)COCCOCCNC(=O)COCCOCCNC(=O)CC[C@H](NC(=O)CC[C@H](NC(=O)CCCCCCCCCCCCCC(=O)O)C(=O)O)C(=O)O)C(N)=O)C(C)C) [Compound 91] | 0.0008 | 126
4 | [NMeY][Aib]EGTFISDYSIALDR[Aib]AQ[Aib]K([AEEA-AEEA-γGlu-C15 diacid])FVNWLLAQSPSSGAPPPS-NH2 (N-terminus assumed; SMILES CC[C@H](C)[C@H](NC(=O)[C@H](CO)NC(=O)[C@H](Cc1ccc(O)cc1)NC(=O)[C@H](CC(=O)O)NC(=O)[C@H](CO)NC(=O)[C@@H](NC(=O)[C@H](Cc1ccccc1)NC(=O)[C@@H](NC(=O)CNC(=O)[C@H](CCC(=O)O)NC(=O)C(C)(C)NC(=O)[C@H](Cc1ccc(O)cc1)NC)[C@@H](C)O)[C@@H](C)CC)C(=O)N[C@@H](C)C(=O)N[C@@H](CC(C)C)C(=O)N[C@@H](CC(=O)O)C(=O)N[C@@H](CCCNC(=N)N)C(=O)NC(C)(C)C(=O)N[C@@H](C)C(=O)N[C@@H](CCC(N)=O)C(=O)NC(C)(C)C(=O)N[C@@H](CCCCNC(=O)COCCOCCNC(=O)COCCOCCNC(=O)CC[C@H](NC(=O)CCCCCCCCCCCCCC(=O)O)C(=O)O)C(=O)N[C@@H](Cc1ccccc1)C(=O)N[C@H](C(=O)N[C@@H](CC(N)=O)C(=O)N[C@@H](Cc1c[nH]c2ccccc12)C(=O)N[C@@H](CC(C)C)C(=O)N[C@@H](CC(C)C)C(=O)N[C@@H](C)C(=O)N[C@@H](CCC(N)=O)C(=O)N[C@@H](CO)C(=O)N1CCC[C@H]1C(=O)N[C@@H](CO)C(=O)N[C@@H](CO)C(=O)NCC(=O)N[C@@H](C)C(=O)N1CCC[C@H]1C(=O)N1CCC[C@H]1C(=O)N1CCC[C@H]1C(=O)N[C@@H](CO)C(N)=O)C(C)C) [Compound 92] | 0.0013 | 74.1
5 | [NMeY][Aib]EGTFISDYSIALDR[Aib]AQ[Aib]K([AEEA-AEEA-γGlu-γGlu-C15 diacid])FVNWLLAQSPSSGAPPPS-NH2 (N-terminus assumed; SMILES CC[C@H](C)[C@H](NC(=O)[C@H](CO)NC(=O)[C@H](Cc1ccc(O)cc1)NC(=O)[C@H](CC(=O)O)NC(=O)[C@H](CO)NC(=O)[C@@H](NC(=O)[C@H](Cc1ccccc1)NC(=O)[C@@H](NC(=O)CNC(=O)[C@H](CCC(=O)O)NC(=O)C(C)(C)NC(=O)[C@H](Cc1ccc(O)cc1)NC)[C@@H](C)O)[C@@H](C)CC)C(=O)N[C@@H](C)C(=O)N[C@@H](CC(C)C)C(=O)N[C@@H](CC(=O)O)C(=O)N[C@@H](CCCNC(=N)N)C(=O)NC(C)(C)C(=O)N[C@@H](C)C(=O)N[C@@H](CCC(N)=O)C(=O)NC(C)(C)C(=O)N[C@@H](CCCCNC(=O)COCCOCCNC(=O)COCCOCCNC(=O)CC[C@H](NC(=O)CC[C@H](NC(=O)CCCCCCCCCCCCCC(=O)O)C(=O)O)C(=O)O)C(=O)N[C@@H](Cc1ccccc1)C(=O)N[C@H](C(=O)N[C@@H](CC(N)=O)C(=O)N[C@@H](Cc1c[nH]c2ccccc12)C(=O)N[C@@H](CC(C)C)C(=O)N[C@@H](CC(C)C)C(=O)N[C@@H](C)C(=O)N[C@@H](CCC(N)=O)C(=O)N[C@@H](CO)C(=O)N1CCC[C@H]1C(=O)N[C@@H](CO)C(=O)N[C@@H](CO)C(=O)NCC(=O)N[C@@H](C)C(=O)N1CCC[C@H]1C(=O)N1CCC[C@H]1C(=O)N1CCC[C@H]1C(=O)N[C@@H](CO)C(N)=O)C(C)C) [Compound 93] | 0.0002 | 490
6 | [NMeY][Aib]EGTFISDYSIAK([G5-γGlu-C15 diacid])DR[Aib]AQ[Aib]DFVNWLLAQRPSSGAPPPS-NH2 [Compound 80] | 0.0004 | 468
7 | [NMeY][Aib]EGTFISDYSIAKDR[Aib]AQ[Aib]NFVNWLLAQRPSSGAPPPS-NH2 (not fully specified (residue 14)) [Compound 77] | 0.0002 | 331
8 | [NMeY][Aib]EGTFISDYSIAK([G5-γGlu-C15 diacid])DR[Aib]AQ[Aib]NFVNWLLAQSPSSGAPPPS-NH2 [Compound 82] | 0.0003 | 295
9 | [NMeY][Aib]EGTFISDYSIAK([G5-γGlu-γGlu-C15 diacid])DR[Aib]AQ[Aib]NFVNWLLAQSPSSGAPPPS-NH2 [Compound 81] | 0.0002 | 1000
10 | [NMeY]SEGTFISDYSIAK([2OEG-γGlu-C16 diacid])DRIHQ[Aib]NFVNWLLAQK (not fully specified (N-terminus)) [Compound 7] | 0.0016 | 257
11 | [NMeY][Aib]EGTFISDYSIALDRIK([AEEA-AEEA-γGlu-C16 diacid])Q[Aib]NFVNWLLAQK [Compound 8] | 0.0001 | 100
12 | [NMeY][Aib]EGTFISDYSIAK([G4-γGlu-C15 diacid])DR[Aib]AQ[Aib]NFVNWLLAQSPSSGAPPPS-NH2 [Compound 78] | 0.0003 | 112
